# How the values were obtained:
# [1] = Peptide content (assay) of lyophilized drug product by UPLC-UV at 220 nm, method according to the invention (USP reserpine reference standard, RRF); format: physicochemical; settings: method according to the invention (USP RS)
# Text: The UPLC method similar to Example 1 was used for the quantification of analytes (i.e. the individual peptides) in mixtures DP-5P (SEQ ID NO: 1-5) and DP-7P (SEQ ID NO: 6-12) and for the determination of content uniformity of mixtures DP-5P and DP-7P (lyophilized product). The method is based on the use of an external reference standard. The relative response factor (ratio of molar extinction coefficients, RRF) against this external reference standard has been established for each peptide. The purity, individual related substances, and the assay of DP-5P and DP-7P were determined by reversed phase rapid HPLC (UPLC) using a mobile phase gradient of ACN/IPA and water and UV detection at λ220 nm.
# The following lyophilized peptide compositions were used: DP-5P comprising peptides represented herein by SEQ ID NO: 1-5 admixed at equal net weights of 0.40 mg of each peptide per vial (total amount of protein per vial being 2.00 mg) and 0.56 mg TFA per vial; and DP-7P comprising peptides represented herein by SEQ ID NO: 6-12 admixed at equal net weights of 0.40 mg of each peptide per vial (total amount of protein per vial being 2.80 mg) and 0.96 mg TFA per vial. The following chemicals were used: Acetonitrile, (Biosolve, 01204102); UPLC water, (Type 1, milli-Q); trifluoroacetic acid, (Chem Lab, CLoo.2094.0001), 2-propanol, (UPLC/MS grade, Biosolve, 16264102); Reserpine, (USP, Sigma Aldrich, 1601000). The following equipment was used: QuanRecovery vials, (Waters, 186009186); UPLC pump equipped with a gradient system, autosampler, and UV detection (Waters Acquity or equivalent) and mixer volume 425 μL.
# • Mobile phase A: 0.1% (v/v) TFA in water • Mobile phase B: 0.1% (v/v) TFA in 70/30 ACN/IPA • Diluent A: 0.05% (v/v) TFA in water • Diluent B: 0.05% (v/v) TFA in ACN • Blank solution: 80/20 (v/v) diluent A/diluent B • Purge solvent: 80/20 (v/v) water/ACN • Needle wash: 0.05% (v/v) TFA in 80/20 (v/v) water/ACN
# 5.00 mg Reserpine reference material was accurately weighed and added into a 50 mL volumetric flask. 40.0 mL of blank solution was added, by means of a volumetric pipette. The solution was stirred for 10 min, by means of a magnetic stirrer, until fully dissolved. The solution was diluted to volume with blank solution and mixed well.
# Transfer of 2.0 mL, by means of a volumetric pipette, of stock reference solution 1 into a 20 mL volumetric flask. Diluted to volume with blank solution and homogenized.
# This sample preparation was setup for lyophilized products DP-5P and DP-7P in an initially sealed container. Before opening and dissolving the drug product, the vials were equilibrated at room temperature for at least 1 hour. The content of the vial was dissolved with 0.8 mL of diluent B, and stirred for 20 min, using a magnetic stirrer. 3.2 mL of diluent A were added. The solution was stirred well for 20 min, using a magnetic stirrer. After dissolving the content of the vial, the sample vial was kept on the lab bench for 30 minutes. The solution was stirred briefly and transferred into an HPLC vial.
# • Column: Advance Bio Peptide Map (2.7 μm, 250 x 2.1 mm) • Sample matrix 0.05%v/v TFA in ACN : water (1:4 v/v) • Sample concentration 100 μg/mL net peptide (of each drug substance), duplicate • Injection volume: 10 μL • Column temperature: 40° C. • Sample temperature: 5° C. • Detection: UV (λ=220 nm) • Flow rate: 0.2 mL/min • Run time: 65 min • Purge solvent: 80/20 (v/v) water/ACN • Needle wash: 0.05% (v/v) TFA in 80/20 water/ACN (v/v) (20 s) • Seal wash: 90/10 (v/v) water/MeOH • Elution mode: Gradient elution • Eluent A: 0.1%v/v TFA in water • Eluent B: 0.1%v/v TFA in ACN/IPA (70:30 v/v)
# The RRF was determined for all 12 peptides, enabling the quantification of each peptide against a reserpine as shown above. For the determination, the absorbance of each peptide in a solution comprising said peptide at a known concentration, and of a reference standard solution comprising reserpine at a known concentration, were measured at 220 nm. […]
# [2] = Peptide content (assay) of lyophilized drug product by UPLC-UV at 220 nm, conventional method (peptide as reference standard); format: physicochemical; settings: conventional method (peptide as RS)
# Experimental: The purity including individual related substances and the assay of a DP-5P (5 peptides, SEQ ID NOs: 1-5) and DP-7P (7 peptides, SEQ ID NOs: 6-12) mixture were determined by reversed phase rapid HPLC (UPLC) using a mobile phase gradient of acetonitrile and water and UV detection at λ=220 nm.
# • Column: RP C18, e.g. Waters Acquity, BEH 130 PST (1.7 μm, 150×2.1 mm) • Sample matrix Eluent A : Eluent B=85:15 (v/v). • Sample concentration 100 μg/mL net peptide (of each drug substance mixture), duplicate • Injection volume: 5 μL • Column temperature: 65° C. • Sample temperature: 5° C. • Detection: UV (λ=220 nm) • Flow rate: 0.3 mL/min • Eluent A: 0.05%v/v TFA and 1%v/v Acetonitrile (ACN) in water • Eluent B: 0.05%v/v TFA in ACN
# The relative retention times (RRTs) assigned to peptides and related substances both in a DP-5P (SEQ ID NO: 1-5) and DP-7P (SEQ ID NO: 6-12) mixture was calculated with reference to the retention time of the peptide eluting in the middle (FIG. 1 and FIG. 2). That retention time was used as reference as the main peak of this drug substance was detected approx. in the center of the chromatogram. The related substances were determined by area normalization. The individual related substances were reported≥0.10%a/a. The total related substances were calculated as the sum of all individual related substances equal to or greater than a disregard limit of 0.0500%a/a. The purity was calculated as the difference between total related substances and 100%.
# The assay of each of the peptides was calculated against a reference standard solution containing either five peptides (DP-5P) or seven peptides (DP-7P) and was expressed in percent and in mg net peptide/vial. For this reference method, the absorption ratio between the reference substance and the analyte is 1, because the reference substance is the analyte itself.
# At T=0 months (TOM) the peptide content was measured using the conventional method of Example 2. From T=48 months (T48M) onwards the peptide content was measured with the conventional method of Example 2 and the method according to the invention of Example 3.
Sequence,"Assay (mg/vial) ([1]; DP-5P batch, T48M)","Label claim (% target 0.40 mg/vial) ([1]; DP-5P batch, T48M) [%]","Assay (mg/vial) ([1]; DP-5P batch, T54M)","Label claim (% target 0.40 mg/vial) ([1]; DP-5P batch, T54M) [%]","Assay (mg/vial) ([1]; DP-5P batch, T60M)","Label claim (% target 0.40 mg/vial) ([1]; DP-5P batch, T60M) [%]","Assay (mg/vial) ([2]; DP-5P batch, T0M)","Label claim (% target 0.40 mg/vial) ([2]; DP-5P batch, T0M) [%]","Assay (mg/vial) ([2]; DP-5P batch, T48M)","Label claim (% target 0.40 mg/vial) ([2]; DP-5P batch, T48M) [%]","Assay (mg/vial) ([2]; DP-5P batch, T54M)","Label claim (% target 0.40 mg/vial) ([2]; DP-5P batch, T54M) [%]","Assay (mg/vial) ([2]; DP-5P batch, T60M)","Label claim (% target 0.40 mg/vial) ([2]; DP-5P batch, T60M) [%]","Assay (mg/vial) ([1]; DP-7P batch, T48M)","Label claim (% target 0.40 mg/vial) ([1]; DP-7P batch, T48M) [%]","Assay (mg/vial) ([1]; DP-7P batch, T54M)","Label claim (% target 0.40 mg/vial) ([1]; DP-7P batch, T54M) [%]","Assay (mg/vial) ([1]; DP-7P batch, T60M)","Label claim (% target 0.40 mg/vial) ([1]; DP-7P batch, T60M) [%]",further results
LYCYEQLNDSSEEEDEIDGPAGQAEPDRAHYNIVT (Peptide 2),0.3950,99,0.3932,98,0.3880,97,0.4085,102,0.4141,104,0.4149,104,0.4174,104,,,,,,,
MHGDTPTLHEYMLDLQPETTDLYCYEQLNDSSEEE [Peptide 3],0.3798,95,0.3789,95,0.3883,97,0.3942,99,0.4311,108,0.4194,105,0.4170,104,,,,,,,
MHQKRTAMFQ QERPRKLPQLCTELQTTIHD (MHQKRTAMFQQERPRKLPQLCTELQTTIHD; Peptide 10),,,,,,,,,,,,,,,0.4060,101,0.3966,99,0.3945,99,"Assay (mg/vial) ([2]; DP-7P batch, T0M): 0.4212 mg/vial; Label claim (% target 0.40 mg/vial) ([2]; DP-7P batch, T0M): 105%; Assay (mg/vial) ([2]; DP-7P batch, T48M): 0.4329 mg/vial; Label claim (% target 0.40 mg/vial) ([2]; DP-7P batch, T48M): 108%; Assay (mg/vial) ([2]; DP-7P batch, T54M): 0.4271 mg/vial; Label claim (% target 0.40 mg/vial) ([2]; DP-7P batch, T54M): 107%; Assay (mg/vial) ([2]; DP-7P batch, T60M): 0.4362 mg/vial; Label claim (% target 0.40 mg/vial) ([2]; DP-7P batch, T60M): 109%"
RCINCQKPLCPEEKQRHLDKKQRFHNIRGRWT (Peptide 4),0.3820,96,0.3966,99,0.3842,96,0.3936,98,0.3937,98,0.3911,98,0.3913,98,,,,,,,
RDLCIVYRDGNPYAVCDKCLKFYSKI (Peptide 11),,,,,,,,,,,,,,,0.3866,97,0.3815,95,0.3788,95,"Assay (mg/vial) ([2]; DP-7P batch, T0M): 0.4235 mg/vial; Label claim (% target 0.40 mg/vial) ([2]; DP-7P batch, T0M): 106%; Assay (mg/vial) ([2]; DP-7P batch, T48M): 0.4293 mg/vial; Label claim (% target 0.40 mg/vial) ([2]; DP-7P batch, T48M): 107%; Assay (mg/vial) ([2]; DP-7P batch, T54M): 0.4192 mg/vial; Label claim (% target 0.40 mg/vial) ([2]; DP-7P batch, T54M): 105%; Assay (mg/vial) ([2]; DP-7P batch, T60M): 0.4209 mg/vial; Label claim (% target 0.40 mg/vial) ([2]; DP-7P batch, T60M): 105%"
TLRLCVQSTHVDIRTLEDLLMGTLGIVCPICSQKP (Peptide 5),0.4028,101,0.4021,101,0.3968,99,0.3976,99,0.4107,103,0.3948,99,0.4011,100,,,,,,,

# From patent US20230296569A1, “Substance quantification in complex mixtures” (ISA Pharmaceuticals B.V., priority 2021, published 2023)
